Laboratory results published in publication PMC6127644.
Each block holds one molecule with its values, some of them ahead of it.

Columns and labels:
[1] = target: GluN1Rluc expressed without GluN2 (human) (UniProt Q05586); experiment: FRET or BRET; BRET^1 saturation in HEK-293T cells: constant GluN1Rluc cDNA (0.3 ug) without GluN2, increasing cDNA of the YFP-fused calcium sensor
[2] = target: NMDAR reconstituted from GluN1Rluc and GluN2B (human) (UniProt Q05586); experiment: FRET or BRET; BRET^2 saturation in HEK-293T cells: constant GluN1-RLuc and GluN2B cDNA, increasing NCS1-GFP^2 cDNA; 5 uM Deep Blue C
[3] = target: endogenous NMDAR of mouse primary neurons and microglia (mouse (endogenous in primary neurons and microglia)) (UniProt P35438); experiment: proximity ligation; in situ PLA on primary neurons from non-transgenic control embryos; percent of cells with red dots and dots per cell counted (Figure 5C,D)
[4] = target: endogenous NMDAR of mouse primary neurons and microglia (mouse (endogenous in primary neurons and microglia)) (UniProt P35438); experiment: proximity ligation; in situ PLA on primary neurons from APP_(Sw,Ind) transgenic embryos; percent of cells with red dots and dots per cell counted (Figure 5C,D)
[5] = target: endogenous NMDAR of mouse primary neurons and microglia (mouse (endogenous in primary neurons and microglia)) (UniProt P35438); experiment: proximity ligation; in situ PLA on primary microglia from APP_(Sw,Ind) transgenic mice; percent of cells with red dots and dots per cell counted (Figure 6B,C)
[6] = target: endogenous NMDAR of mouse primary neurons and microglia (mouse (endogenous in primary neurons and microglia)) (UniProt P35438); experiment: proximity ligation; in situ PLA on primary microglia from non-transgenic control mice; percent of cells with red dots and dots per cell counted (Figure 6B,C)

Molecule: CaM-YFP fusion protein (from UniProt P0DP23 1-149) (natural protein)
BRET50 [1]: 3.5

Molecule: endogenous NCS1 of mouse primary neurons and microglia (from UniProt Q8BNY6 1-190) (natural protein)
PLA clusters per cell (clusters per cell) [3]: 2
percent of neurons with PLA complexes [3]: 21%
PLA clusters per cell (clusters per cell) [4]: 5.5
percent of neurons with PLA complexes [4]: 68%

Molecule: endogenous calmodulin of mouse primary neurons and microglia (from UniProt P0DP26 1-149) (natural protein)
percent of neurons with PLA complexes [3]: 77%
PLA red dots per cell containing dots (red dots/cell containing dots) [5]: 6
percent of microglial cells with PLA complexes [5]: 65%
PLA red dots per cell containing dots (red dots/cell containing dots) [6]: 3
percent of microglial cells with PLA complexes [6]: 35%

Further lines, results first:

BRET50 [2]: 35
Molecule: NCS1GFP^2 fusion protein (from UniProt P62166 1-190) (natural protein)

BRET50 [1]: 30
Molecule: NCS1YFP fusion protein (from UniProt P62166 1-190) (natural protein)

percent of neurons with PLA complexes [3]: 14%
B1: endogenous calneuron-1 of mouse primary neurons (natural protein)
chain: MRLPEQPGDGKPENETKGDQETPERGEEPRRSPAPDFPTWEKMPFHHVTAGLLYKGNYLNRSLSAGSDSEQLANISVEELDEIREAFRVLDRDGNGFISKQELGMAMRSLGYMPSEVELAIIMQRLDMDGDGQVDFDEFMTILGPKLVSSEGRDGFLGNTIDSIFWQFDMQRVTLEELKHILYHAFRDHLTMKDIENIIINEEESLNETSGNCQTEFEGVHSQKQNRQTCVRKSLICAFAMAFIISVMLIAANQILRSGME
